The DeepSol protein solubility set

Test: soluble on expression in E. coli; label from the status in PepcDB or PDB records

## MNDAVEVELEPVTYHYFNAGAAGKDLNTNETYIGKMLEEKTGVNFKVEHLVGDINQRTGVMIASGDYPDVIVPDAAIDALLDAGAFIPLNDLLEEHGPNLLEAYGDYLHMFTHDDGNIYYIPFGATVNEFQPNPNIDQGAFWIQRGILKEYGFPEINTLDEYLDIITRYAKENPEIDGMRTIPFTGLTYDWRFFAFTNVPNHLAGYPNDGGVMVDMDTHEASVYADSEYAKRWLKALNELNAEGLLDQEMFVMNYDEYLEKLSSGRVLGFFDYGWQFGTASNALRDAGNPDREYMALPVVFDEGIKDQYIDPPAFTGNRGVGITVNAENPERIIQFWDELIKEDNQRLVMWGIEGEHYNVDENGRFYQTEEQIEIVNNQNFRDEFGMTTFEWSWPRINGTFSDGNAVEARRQPEVAFASYNDDDKEYLEAYGISTFAELFSEPDERPWYPAWSANIEQGSPQQIFEERADEILRRHYARIVLADPADFDKEWDDFVQAYRSLDVDAYENFFTEVVQARVRGEWLEHHHHHH
  soluble on expression in E. coli: soluble

## MGSDKIHHHHHHMHKFNPDRIQIGISACLLGEQVRFDGGHKNSAYCQQELKPHFDFVPVCPEMAIGLGAPRKSIRQVRIEGEIRVRSADGSIDVTEQLQSFCNNKADGLGFLGGYLFCSKSPTCGMERVPVYKADGSGGFKEGVGVFAAALMKRFPHLPVEEEGRLHDLVIRENFFTRVYAYHDWHCMRLKGLTRKALTDFHARYKYLLLSHSPAIYRTLGPLLAGDGELEAVADSYFDGFMTALRHKASRRNHTSALQHIQGYFKKFLSGSQKAELSDAILAYRQGVQPLLVPITLIRHYLREHPNDYIAAQVYLNPHPDSLRLRYAY
  soluble on expression in E. coli: not soluble

## MGSSHHHHHHSSGLVPRGSKKKKEMPFPNKKIELGDKLSESIRSFSTITDTEIIIGICRKNIPGWKEINESYIEVKQIFSGLTNQLFVVSIVNESMSLSLKHPRILFRIYGKHVGKFYDSKVELDVFRYLSNINIAPNIIADFPEGRIEEFIDGEPLTTKQLQLTHICVEVAKNMGSLHIINSKRADFPSRFDKEPILFKRIYLWREEAKIQVSKNNFQIDKELYSKILEEIDQLEELIMGGEKFSMERALELKLYSPAFSLVFAHNDLQENNLLQTQNNIRMIDYEYSAINFAGADIANYFCEYIYDYCSEKQPYFKFKYEDYPCEELRKLFISVYLSQTLQEQVMPSQQIVHIMTKAVEVFTLISHITWGLWSIARTPGYQPNSVEFDFTEYANTRFTHYLQKKKELIDQGILPLNSWLFNL
  soluble on expression in E. coli: soluble

## MKKKIIIAIVASAITMTHFVGNTYADSKTEVSVTAPYNTNQIAKWLEAHAKPLKTTNPTASLNDLKPLKNMVGSASIVGLGEATHGAHEVFTMKHRIVKYLVSEKGFTNLVLEEGWDRALELDRYVLTGKGNPSQHLTPVFKTKEMLDLLDWIRQYNANPKHKSKVRVIGMDIQSVNENVYNNIIEYIKANNSKLLPRVEEKIKGLIPVTKDMNTFESLTKEEKEKYVLDAKTISALLEENKSYLNGKSKEFAWIKQNARIIEQFTTMLATPPDKPADFYLKHDIAMYENAKWTEEHLGKTIVWGHNGHVSKTNMLSFIYPKVAGQHLAEYYGKRYVSIGTSVYEGQYNVKNSDGEFGPYGTLKSDDPNSYNYIFGQVKKDQFFIDLRKANGVTKTWLNEQHPIFAGITTEGPDIPKTVDISLGKAFDILVQIQKVSPSQVHQLEHHHHHH
  soluble on expression in E. coli: soluble

## MTKKHREGLSLRAFAKKMRVSPNAVVSRFKTGKFDQALFEDGSVNEALATAIWNENPTKRPAPFLAPDGQPRTKIKQVSTEGANEYEIKLERMQVALESEKIALERLRETTVDREEVKRAAREFGRAHRDAMLNFPHRFGASIAAQVGCDAASLIGAIDYYIRKALLEAVHIPVPFHDPHSPELENLQETNNG
  soluble on expression in E. coli: not soluble

## MHTSLMSYNQNMIPSGDDRPVFPTIDLFANTSLEELQQSLCAAVANYRDFLTRKILPFQQSWVVRVLSESGLDEETLRAIKSCVFTPCCSIPGAVQPDRICQHDSPIYIYTSLNLLSQYVEGKTLLRCYRKFVLASSLPPYRTDIPAEELKNVLNSILPGAYSMPHAVSCFVAILPSKKFTISMSKITTRGGAEEHFVVFSREENDIIPYDIVAVGKTLFSQSDEEFGLPNLSFDELQNLISTLEHHHHHH
  soluble on expression in E. coli: not soluble

## MLIDSFEDLDGVIQEIKFRLTRAPMEMGRERECCVLSTSPGCRRAASFPFVGDSSIIQASSLKVRSKSESEALNKMRLTQMNLETVRKRLSESTIKEKDEGSDYQSHSSSSSECEVDDLELFCAGPLELKEEEKLRKSVRFADDCGHELYMVRVATEPSNCPPKLSPSVLRRYRGESFEEEEMTTREPAPVWNLMFKQPAADYVRFRENMETNKVSLENVILNNEAYKVMGTIKVGNIAFEKSVFVRYTMNGWISYMDKAAIYQPSTSKIQDTFKFDLDLPSSVEKIHQIEFCICFKANGTEYWDSNSGTNYVLHCEQQQHPAVPQQRRASLFGSSKYLDRDDAYKLDYNDWGKFASWKALSTDGPYW
  soluble on expression in E. coli: soluble

## MAAAKRKLVFDSPNESSVNFETSPNFPKEWKIDGMDIENRIRNFRDELQAQGLCPVGSAGIDPKSKFRTEYRRIVNANTILTDVLRLQQKEGEWLKNASGLLEYDIQSLHARRDHLDNAVEQLKSQLSRLDSSVAILKSQQMAVKSVLELREDEYLADDADSNLPDEFLKFSKISKLCAASLQSYENVKKRNEEMQKELIAERNRQRKLHDATMKMMEEKERVRVEQLEDLFKDFSLEQLTRLRDRIRQAQK
  soluble on expression in E. coli: not soluble

## MGSDKIHHHHHHLPLLLPVGSQILRNKMRSKPRILIALSSVGLGGAERQGLMFAEYLKCKHSFDVLVSTFGGEGKVSLLCKETGIQHVNIAYPLLGHRWEVWWKLISTALTLRKIKPDCIVSYCMPANAACAAVWRLTGARACIWGQRDAGLQKELLTPIPLAPRLATCFVSNSPHGAAFLENQLAIPRHKISTIPNAVKLNVAQLSRTEWRSRLKISHDAMIVTMVSNLSFRKDHETLLKAWRIGLDNQLFPQNTKLVLCGRDDSNAPVIRKLAGKLHLDNHIRFAGATDDVAGILNASDIAAFSFISEGLPNVVIESMAAGLPVVATDIPGVRAAIGSCDDNILVPPKDPAAMAHGIAKILQDPALRSRAAAANITQATSTFAPDVVFSAFAKLILSNI
  soluble on expression in E. coli: not soluble

## MDPQILSPASYGNRAPQKKKKPKKPSAELPSRHSTRSDENSGKIEPGTEHMSSGQRKNLKLLKSDERARVIDARAVLDSAQKHLATLLKNGGKGGDEDIDELIFNREAEIPVEPIRKGKCPFYFDQRILTIVGRVGEVPVQHWFAIYNTSPFPYMFKIKCSDNSLFKIHPVCGVLDALCDAEISVTFVGAHVPPRYTSYLSIHSMLPDPLFLDVPQAFRNRRNFETRQRLYVEYAYHEDPILVTAEEDRDQFHFQYMRKVLKTDEAESFAKKLKAEKVERLDKKIDEIKARKIDEKLIEREIVRAESPKFEPKTRRLRVEKFFNQQKQKKENEWMEKLKVDASRKPMLSHWDLEMKNIKAEKKKIGAVKKKIKAEKKEDKKKPMGWMSTLKMERDERRTKRKEEEEKKKKDAEEKKKKDAEEKKKKDAEDEKKKDAGDEKKKDAEDEKKKDAGDEKKKKDAGEKKKKDAEEKKKVAEEEKKS
  soluble on expression in E. coli: soluble

## KEYSHLPIKGNESNLIDTLEDAISLRVPKNRPFAVALSGGLDSSIIAYILEARLSENAHYYVVGERYPDSVLALLEHLNICLSRVHLIKPPPADELLKLITKTCHITKSYNPSIISNGLATLLLCKAVHQDGIRVMLSGEGADEFFCGYQGMYNGRNDPTEMRANLIKDLHFTELRRLDLISASFSVEARCPFLDQRVTQIAMMLDVKNLCDIPMNIGKTLLRDTFKHLLPHSIINAPKESFDITSGLQKLVIDELQKEFKSERVALRTIFEKTLANY
  soluble on expression in E. coli: not soluble

## MGSDKIHHHHHHMSNSQILGERARILADQLLAVPTTVYQQRSLQAALHLFLDTGTKTALHRAPLVSKSAVSRLLNNYDWDTAACWALLQRSQWEALLLAARRKRRACLRLSVDLTSIEKTGKQLPFVRVYNEVHGIHLVVLFAEYRGLKFPVGYRVYRGKGTATPVSLALELLGEVPDAIRKRFRIRVLADSGFEAAVFLDGVRTLGFEFVVGVRATRRTTHPGQVTVADCEHGAWLELQNWPHDTLTLARVERGERTFFSVASELMTGDEVAAEGGKRWNIESFFKEGKHQFSLQQFALRTARGLDRWVLLVFLAFTLTMLHRSPDLSLEEAAGLALTLALPFLRLNVIFARLATDEEFLRQHGYSLKIARCNS
  soluble on expression in E. coli: not soluble

## TDDVEEDGEPSYKRVAEPEEDESAKPFGGEKAKAARPEPAVKGVRHTSPAPTAAPEKKTSWWDSFKAWLKRIFGGSETQAAPAAETSEKRSTANRSGSRANNRRQNPRRSKREGSKVEVREVAGKTAGQEARADKAETRNNGNRRRNERGDRAAERANEAEIQSRNVQPAATVADAAPSETEVQTGKRRRNGSRSERGQTAPETATVAETTVQTAENTPSEPHTAEDKGSKPKSERNRRERDSRDAKERRERNNQRDRRQNGKKRNIPSAAKIEQYLNIHDTADKVRSAAAHVFGETDANAPITVSIADPVAERDLPTASPAVSNGDAPVYDAAEKIRRATAAILPEGATPKAEAQEMPSETATFTAAAEQARETAQTGGLVLIETDPAALKAWAAQPEVQAGRGLRRSEQPKPSEVATVPAEEMIQVETRQG
  soluble on expression in E. coli: not soluble

## MKNKKTLTKVALTTGLALTAVAPYGVGHAEETDQLQVQIQEESFRSGELTQPSQKAPENVVKDALKEKTEQALSPKQVNGETGVDYKVLQKRGSYDGTTLVRIQQTYEGKEVYGHQLTAHVDNSGVIKSVSGDSAQNLKQEELKKPINLSKDEATQYIYTKYGNDINFISEPEVKEVIFVDENNGQASNAYQVTFEAATPNYISGTYLINAQNGDMLKNMVQESNLKASEKLVGALKKSKKSSLTSLTGTGKDDLGISRSFGISKQSNGKYALADYTRGQGIETYDVNYRDITKEESYYPGTLATSTSTTFNDPKAVSAHYLATKVFDFYKDKYNRNSFDNQGQKVVSVVHAWDSGDTNDPKNWQNALSANNGSMLVYGDPIVKAYDVAGHEFTHAVTSSESNLEYYGESGAINEALSDIMGTSIEKYVNNGSFNWTMGEQTGSVFRDMENPTSVPSSLGVPYPDDYSEFNDFNGWDQGGVHFNSSIINKVAYLIAKGGTHNGVTVKGIGEDKMFDIFYYANTDELNMTSNFKELRSACIRVATNKYGANSAEVQAVQKAFDAAKIK
  soluble on expression in E. coli: not soluble

## HHHHHHMAEKKQWHETLHDQFGQYFAVDNVLYHEKTDHQDLIIFENAAFGRVMALDGVVQTTERDEFIYHEMMTHVPLLAHGHAKHVLIIGGGDGAMLREVTRHKNVESITMVEIDAGVVSFCRQYLPNHNAGSYDDPRFKLVIDDGVNFVNQTSQTFDVIISDCTDPIGPGESLFTSAFYEGCKRCLNPGGIFVAQNGVCFLQQEEAIDSHRKLSHYFSDVGFYQAAIPTYYGGIMTFAWATDNDALRHLSTEIIQARFLASGLKCRYYNPAIHTAAFALPQYLQDALASQPS
  soluble on expression in E. coli: soluble

## NVHREWAANEKTAMESALGMSYAGKRALVCMKHVGMNVAADCFMNAAITGANGGMVIVAADDPSMHSSQNEQDSRVYGQFAMIPVMEPSNQQEAYDMTRLAFDLSERLGTPVMMRITTRLAHSRAGVVQTEPIGENELHLPEDKRQYVLLPGIAKKRYRILLDKQTDFVRESENSPYTEYVDAADKSKGIVACGIAYNYLMEAFKAQVPYPVLKVTQYPIPHKQMERLLNECGDIVVMEEGYPVVEQLLKGFPGLERIKGRLDGTLPRDGELNPDHVAKAFNIPVVEGEPIPDLVAARPPALCKGCSHRDVYDALNEVLTEYPNGRVFSDIGCYTLGALPPYEAINSCVDMGASITMAKGAADAGLFPAVSVIGDSTFTHSGITGLLDAINENSNITVIISDNESISMTGGQH
  soluble on expression in E. coli: not soluble

## MDTISDVQIHWRKKDYLSMSLLDDFGIAETTVKEHSVNDQIIVTLSADHRVRMIIRYEMDESHIPMIKNLVIRAFFIGSQ
  soluble on expression in E. coli: soluble

## SDMGTSALSKKPWWTLPQNFHAPMVFHMEEDQEELIFGHGDTYLRCIEVHSHTLIQLESWFTATGQTRVTVGPHRARQWLLHMFCCVGSQDSYHHARGLEMLERVRSQPLTNDDLVTSISVPPYTGDLSLAPRISGTVCLSVPQPSPYQVIGCSGFHLSSLYP
  soluble on expression in E. coli: soluble
